The values below come from PMC3594298.

The target of the test is 6Xhis-tagged AldE (class 3 aldehyde dehydrogenase encoded by synpcc7942_0489) from S. elongatus PCC7942 (S. elongatus PCC7942). The test is described as follows: SEC; HiLoad 16/60 SuperDex200 gel filtration column in 150 mM NaCl/50 mM Tris, 7.5/1 mM EDTA; elution compared with MW standards.

As for “6Xhis-tagged AldE (class 3 aldehyde dehydrogenase encoded by synpcc7942_0489) from S. elongatus PCC7942 (enzyme)”, the stoichiometry N turned out to be 2.
